What was measured:
Test in all cases: thioesterase assay, Lineweaver-Burk plot
TesA = target: T1, TesA (Corynebacterium glutamicum, UniProt Q8NMW3); assay type: biochemical; settings: optimal substrate; assay conditions of the kinetics not stated (optimum 30 °C, pH 8.0)
T1 construct: gene Cgl2451; full length in pET-28a(+), His-tag (Ni-NTA), E. coli BL21(DE3); forward primer encodes MAANN start; TE1 family
T1 sequence (Q8NMW3 1-155): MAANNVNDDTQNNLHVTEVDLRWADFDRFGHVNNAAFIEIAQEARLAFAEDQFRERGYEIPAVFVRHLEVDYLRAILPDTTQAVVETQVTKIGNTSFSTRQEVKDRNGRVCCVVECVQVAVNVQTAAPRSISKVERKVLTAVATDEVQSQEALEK
Text: thioesterase assay, Lineweaver-Burk plot on TesA | of TesA estimated through fitting to the Michaelis–Menten equation

[1] = substrate: CC(=O)SCCNC(=O)CCNC(=O)[C@H](O)C(C)(C)COP(=O)(O)OP(=O)(O)OC[C@H]1O[C@@H](n2cnc3c(N)ncnc32)[C@H](O)[C@@H]1OP(=O)(O)O; assay type: biochemical, Corynebacterium glutamicum; settings: optimal substrate, assay conditions of the kinetics not stated (optimum 30 °C, pH 9.0)
[2] = substrate: CCCCCCCC(=O)SCCNC(=O)CCNC(=O)[C@H](O)C(C)(C)COP(=O)(O)OP(=O)(O)OC[C@H]1O[C@@H](n2cnc3c(N)ncnc32)[C@H](O)[C@@H]1OP(=O)(O)O; assay type: biochemical, Corynebacterium glutamicum; settings: optimal substrate, assay conditions of the kinetics not stated (optimum 30 °C, pH 8.0), authors' other TesB properties (Fig. 5) come from their previous studies

CCCCCCCCCCCC(=O)SCCNC(=O)CCNC(=O)[C@H](O)C(C)(C)COP(=O)(O)OP(=O)(O)OC[C@H]1O[C@@H](n2cnc3c(N)ncnc32)[C@H](O)[C@@H]1OP(=O)(O)O [C12, lauroyl-CoA]
Km (TesA): 1380 µM

B1: TE9 (Corynebacterium glutamicum ATCC 13032) (protein)
chain: MFLTLSGADMSALIKGSGPHHVVVLNGWFGHAAGWGAFADYLDLGNYTWHFWDYRGYGNRKDDAGEFTLEEISADIVAYIDSIEAEKVSILGHSMGGVFMQKVLADSATPIASLVGISAVAAAGTPFDEDSRKLFTSAGHNPDSRRAIIDFTSGSRQPAAWLDDLTDSTVQNSTPEAVEKYFFAWADCNFAADLGTQDLPVYILTGDLDPAVTKTAVESAFGPIYQNLTVEELHDVGHYAIFEHPLGLAARVLRFLDAV
notes: full length in pET-28a(+), His-tag (Ni-NTA), E. coli BL21(DE3); forward primer encodes MFLTL start
Km [1]: 1810 µM

B2: TesB (Corynebacterium glutamicum ATCC 13032) (protein)
chain: MKTIEDILTLEEIDRDIYRGPVIESYLARTFGGQVAAQALVAATHTVDKAFTVHSLHGYFIAPGDPTAPAIYLVDRVRDGKSYVTRSVRGIQDGEVIFSMQASFHRGDEGIEHMDKMRKVPAPDEIKGTVERMPISSRRVLDEWAEWDIRVIPQDQLELSDFTATEQAVWIRCTADLPDNPTFHQCSLTYLSDMTLLHSALVPHPGEKMQMASLDHAVWFLRPFRVDEWLLYDQRSPSASSGRALTHGRLFNQQGDLVAIVNQEGMTRTLHEGAQSIPMRKD
notes: full length in pET-28a(+), His-tag (Ni-NTA), E. coli BL21(DE3); forward primer encodes MKTIE start; TE4 family
Km [2]: 5450 µM

From paper PMC10512533, “A strategy to enhance and modify fatty acid synthesis in Corynebacterium glutamicum and Escherichia coli: overexpression of acyl-CoA thioesterases” (Microbial Cell Factories, 2023)
